Laboratory results: patent publication US20090111753A1, “Nogo-A Polypeptide Fragments, Variant Nogo Receptor-1 Polypeptides, and Uses Thereof” (Yale University, priority 2004, published 2009)
Positions count from the first letter of the chain named. Names may count otherwise.

T1: NgR expressed on COS-7 cells (species not stated)
T1 chain: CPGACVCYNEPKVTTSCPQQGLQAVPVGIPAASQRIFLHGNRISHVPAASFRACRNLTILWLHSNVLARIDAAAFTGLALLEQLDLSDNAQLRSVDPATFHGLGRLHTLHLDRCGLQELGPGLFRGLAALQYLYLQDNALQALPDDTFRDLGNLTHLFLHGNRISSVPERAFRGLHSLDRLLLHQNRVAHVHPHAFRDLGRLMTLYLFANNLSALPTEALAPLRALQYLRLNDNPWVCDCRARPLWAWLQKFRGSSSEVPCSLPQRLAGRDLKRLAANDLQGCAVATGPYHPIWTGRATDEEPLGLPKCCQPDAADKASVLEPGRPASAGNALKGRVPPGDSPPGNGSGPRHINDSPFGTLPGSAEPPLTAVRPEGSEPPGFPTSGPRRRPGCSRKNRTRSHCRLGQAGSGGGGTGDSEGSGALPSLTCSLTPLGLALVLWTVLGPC

T2: human NgR1 alanine mutant 232, 234 (human, UniProt Q9BZR6 27-473)
T2 sequence: T1 chain with Y206A, F208A

T3: human NgR1 alanine mutant 133, 136 (human, UniProt Q9BZR6 27-473)
T3 sequence: T1 chain with H107A, H110A

T4: human NgR1 alanine mutant 182, 186 (human, UniProt Q9BZR6 27-473)
T4 sequence: T1 chain with H156A, H160A

T5: human NgR1 alanine mutant 158, 160 (human, UniProt Q9BZR6 27-473)
T5 sequence: T1 chain with Y132A, Y134A

T6: human NgR1 alanine mutant 163 (human, UniProt Q9BZR6 27-473)
T6 sequence: T1 chain with D137A

T7: human NgR1 alanine mutant 82, 179 (human, UniProt Q9BZR6 27-473)
T7 sequence: T1 chain with N56A, N153A

T8: AP-fused Amino-Nogo fragment B4C (a.a. 950-1018) (human, UniProt Q9NQC3 950-1018)
T8 construct: also called AmNg B4C; AP-B4C; not shown: alkaline phosphatase (AP), vector pcAP6
T8 sequence: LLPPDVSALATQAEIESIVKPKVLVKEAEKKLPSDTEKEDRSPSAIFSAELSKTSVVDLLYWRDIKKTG

T9: AP-fused Amino-Nogo fragment B (a.a. 622-1018) (human, UniProt Q9NQC3 622-1018)
T9 construct: also called AmNg B; AP-AmNgB; not shown: alkaline phosphatase (AP), vector pcAP6
T9 sequence: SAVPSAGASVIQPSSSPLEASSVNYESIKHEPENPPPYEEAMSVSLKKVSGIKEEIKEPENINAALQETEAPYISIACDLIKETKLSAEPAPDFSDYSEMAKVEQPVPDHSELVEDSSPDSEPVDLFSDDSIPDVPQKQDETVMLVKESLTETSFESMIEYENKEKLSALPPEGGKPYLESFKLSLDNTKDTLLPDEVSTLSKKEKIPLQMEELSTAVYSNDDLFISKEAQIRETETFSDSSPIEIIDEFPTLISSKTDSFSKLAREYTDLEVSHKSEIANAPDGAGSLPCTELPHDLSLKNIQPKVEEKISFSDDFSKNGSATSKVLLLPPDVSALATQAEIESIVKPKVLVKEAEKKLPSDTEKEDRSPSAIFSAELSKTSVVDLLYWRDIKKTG

T10: AP-fused Amino-Nogo fragment B4 (a.a. 877-1018) (human, UniProt Q9NQC3 877-1018)
T10 construct: also called AmNg B4; AP-B4; not shown: alkaline phosphatase (AP), vector pcAP6
T10 sequence: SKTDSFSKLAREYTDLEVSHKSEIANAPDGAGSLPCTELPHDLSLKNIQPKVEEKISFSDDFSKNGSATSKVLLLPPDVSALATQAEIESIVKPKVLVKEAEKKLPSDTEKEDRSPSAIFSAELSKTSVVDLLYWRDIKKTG

B1: AP fusion protein with the B4C fragment of Amino-Nogo-A fused directly to Nogo-66 (ligand)
chain: LLPPDVSALATQAEIESIVKPKVLVKEAEKKLPSDTEKEDRSPSAIFSAELSKTSVVDLLYWRDIKKTGRIYKGVIQAIQKSDEGHPFRAYLESEVAISEELVQKYSNSALGHVNCTIKELRRLFLVDDLVDSLK
notes: domain: Nogo-66; also called AP-B4C66; AP-B4C-66; not shown: alkaline phosphatase (AP), vector pcAP6
B2: NgR expressed on COS-7 cells (species not stated) (receptor)
chain: T1 chain

What was measured:
[1] = target: T1, NgR expressed on COS-7 cells (species …); experiment: AP-ligand binding to NgR-expressing COS-7 cells (Scatchard)
[2] = target: T2, human NgR1 alanine mutant 232, 234; experiment: AP-ligand binding, COS-7
[3] = target: T3, human NgR1 alanine mutant 133, 136; experiment: AP-ligand binding, COS-7
[4] = target: T4, human NgR1 alanine mutant 182, 186; experiment: AP-ligand binding, COS-7
[5] = target: T5, human NgR1 alanine mutant 158, 160; experiment: AP-ligand binding, COS-7
[6] = target: T6, human NgR1 alanine mutant 163; experiment: AP-ligand binding, COS-7
[7] = target: T7, human NgR1 alanine mutant 82, 179; experiment: AP-ligand binding, COS-7
[8] = target: T8, AP-fused Amino-Nogo fragment B4C (a.a. …); experiment: AP fusion on NgR-expressing COS-7 cells
Description: (§1) Several alkaline phosphatase (AP) fusion proteins containing various Nogo-A segments derived from regions between the amino terminus and the first hydrophobic segment were examined to identify the mechanism of Amino-Nogo-A action. To generate additional AP fusion proteins, human amino Nogo fragments were amplified and ligated to the pcAP6 vector digested with restriction enzymes EcoRI and XhoI as described (Fournier, A. E., et al., Nature 409:341-346 (2001)). Plasmids were then transfected into HEK293T cells and conditioned media were collected after 7 days. None of these fragments bind with high affinity to non-transfected COS-7 cells. […] This binding is saturable with a Kd indistinguishable from that for AP-Nogo-66 association with NgR (Table I). To better define the region responsible for Amino-Nogo interaction with NgR, a range of truncation mutants of Amino-Nogo were examined as AP fusion proteins.
(§2) Binding Kds for AP fused Amino-Nogo fragments were measured by applying conditioned media containing AP fusion protein to NgR expressing COS-7 cells. Bound AP was stained and measured.

[9] = target: T9, AP-fused Amino-Nogo fragment B (a.a. …); experiment: AP fusion on NgR-expressing COS-7 cells
Description: as §1, §2

[10] = target: B1; experiment: AP fusion on NgR-expressing COS-7 cells
Description: as §1, §2

[11] = target: T10, AP-fused Amino-Nogo fragment B4 (a.a. …); experiment: AP fusion on NgR-expressing COS-7 cells
Description: as §1, §2

| Kd [1] | binding result [2] | binding result [3] | binding result [4] | binding result [5] | binding result [6] | binding result [7] | Kd [8] | Kd [9] | Kd [10] | Kd [11] | Binder |
| --- | --- | --- | --- | --- | --- | --- | --- | --- | --- | --- | --- |
| 0.42 nM | no binding | no binding | no binding | no binding | no binding | no binding | – | – | – | – | B1 |
| – | – | – | – | – | – | – | 3.51 nM | 6.66 nM | < 1 nM | 9.01 nM | B2 |
